Broadly, the Kd is the free concentration of one partner at which half of the binding sites on the other are occupied at equilibrium, for simple one-to-one binding. By koff is commonly meant the first-order rate constant of dissociation. One may read the kon as the second-order rate constant of association.

Test [1] deals with T1, recombinant human Tau-412 protein (human, UniProt P10636-7 1-412).
T1 construct: Analyte of the SPR study; also called human tau (1N4R, 412 amino acids)
Nature of the test: SPR Biacore T200, Protein A capture, mean of the VH2/VK2 runs. The method, then: (§1) Kinetic data was obtained at a flow rate of 40 μL/min to minimize any potential mass transfer effects. Two repeats of the blank (no antigen) and the 2.5 nM concentration of the analyte were programmed into the kinetic run in order to check the stability of both the surface and analyte over the kinetic cycles. For the initial kinetic runs, 2-fold dilutions of Tau-412 from 40 nM to 0.156 nM were run. For kinetic analysis and on subsequent runs, an analyte range of 20 nM to 0.625 nM was selected. This range covered multiple analyte concentrations both above and below the reported KD.
(§2) The association phase was monitored for 500 seconds to allow some of the higher concentrations of analyte to reach steady state. In order to observe a sufficient signal decrease (>10%) during the dissociation phase of the kinetic cycle, dissociation was measured for 1200 seconds. As discussed in Section 5, the Fcs were allowed to stabilize for 600 seconds after each regeneration step. The signal from the reference channel Fc1 was subtracted from that of Fc2, Fc3 and Fc4.
(§3) The kinetic parameters for the interaction of Tau-412 with the 7 mAbs as measured using the Protein A capture system on the Biacore T200 are shown in Table F-2. To correct for differences in the capture level of the antibody between each binding cycle, a local Rₘₐₓ parameter was used in the 1-to-1 binding model. Kinetic analysis was performed in three independent runs using fresh preparations of Tau-412 and antibody. Run 1 and runs 2+3 used different vials of the antigen Tau-412; therefore the reported errors associated with the mean response probably represent variation in preparation of the analyte and differences in assay set-up and run. From run 1 to runs 2+3, the amount of antibody injected was adjusted to try to get closer to the target 300 RU capture levels.
In general terms: SPR reads the build-up and loss of mass on a sensor chip optically.

Test [2] concerns the target T1, recombinant human Tau-412 protein. Briefly: SPR Biacore T200, mAb captured on Protein A, Tau-412 analyte, 1-to-1 model, chip A11/1. As to the method:
as §1, §2, §3

The target is the same in test [3]. Nature of the test: SPR Biacore T200, mAb captured on Protein A, Tau-412 analyte, 1-to-1 model, chip A11/2. The method, then:
as §1, §2, §3

The target of test [4] is T2, human tau (human, UniProt P10636 2-60).
T2 construct: also called soluble human tau; human tau protein
T2 sequence (P10636 2-60 limits assumed): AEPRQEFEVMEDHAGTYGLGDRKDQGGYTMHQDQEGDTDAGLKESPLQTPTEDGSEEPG
Briefly: competition ELISA on plate-coated human tau against biotinylated HJ8.5; IC50 normalised to chimeric HJ8.5; column External. On the technique in general: ELISA stands for enzyme-linked immunosorbent assay.

Test [5] concerns the target T2, human tau. Nature of the test: competition ELISA on plate-coated human tau against biotinylated HJ8.5; IC50 normalised to chimeric HJ8.5; column C2N Run 1.
Test [6] concerns the target T2, human tau. Briefly: competition ELISA on plate-coated human tau against biotinylated HJ8.5; IC50 normalised to chimeric HJ8.5; column C2N Run 2.
In test [7] the target is T1, recombinant human Tau-412 protein. Nature of the test: SPR Biacore T200, Protein A capture, mean of the VH3/VK2 runs. As to the method: as §1, §2, §3
Test [8] has the same target. Nature of the test: SPR Biacore T200, Protein A capture, mean of the VH2/VK3 runs. As to the method: as §1, §2, §3
For test [9] the target is unchanged. Briefly: SPR Biacore T200, Protein A capture, mean of the VH1/VK3 runs. The method, then:
as §1, §2, §3

Substitutions are numbered along the chain they refer to.

T1 sequence (P10636 other isoform, or with tags, fused parts or gaps limits assumed): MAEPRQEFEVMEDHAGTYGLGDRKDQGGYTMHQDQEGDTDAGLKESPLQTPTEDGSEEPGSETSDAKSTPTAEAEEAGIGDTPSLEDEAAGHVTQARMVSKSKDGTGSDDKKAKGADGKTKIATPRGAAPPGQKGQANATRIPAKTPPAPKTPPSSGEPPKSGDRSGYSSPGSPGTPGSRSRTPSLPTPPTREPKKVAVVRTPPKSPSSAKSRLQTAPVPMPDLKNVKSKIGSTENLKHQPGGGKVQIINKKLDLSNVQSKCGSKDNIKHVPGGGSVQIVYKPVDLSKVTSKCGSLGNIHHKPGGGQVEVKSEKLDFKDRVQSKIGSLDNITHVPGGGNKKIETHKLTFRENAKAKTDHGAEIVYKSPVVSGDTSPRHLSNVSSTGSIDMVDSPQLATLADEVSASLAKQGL

B1: VH2/VK2 humanized anti-tau antibody (antibody, human IgG4 S228P, kappa, V domains shown)
VH: EVKVVESGGGLVQPGGSLKLSCVVSGFTFSNYWVNWVRQAPGKGLEWVAQIRLKSDNYATHYEESVKGRFTISRDDSKSSVYLQMNSLRAEDTGIYYCTNWEDYWGQGTTVTVSS
VL: DIVLTQSPDSLAVSLGERATISCRASQSVSTSRYSYIHWYQQKPGQPPKLLIKYASNLESGVPSRFSGSGSGTDFTLNIHPLEPEDFATYYCHHSWEIPLTFGQGTKLEIKR
notes: Humanized variant of HJ8.5
Take B1: the Kd in test [1] amounted to 2.23 nM; in test [2], 2.4 nM; in test [3] it was 2.06 nM. In addition, the dissociation rate constant (koff) in test [1] worked out at 0.000608 s⁻¹; in [2] it was 0.000628 s⁻¹; in [3], 0.000587 s⁻¹. For the same molecule, the results for the kon in test [1], in [2] and in test [3] were 273000 M⁻¹ s⁻¹, 262000 M⁻¹ s⁻¹ and 284000 M⁻¹ s⁻¹, respectively. Besides, the “IC50 (Relative to Chimera)” value in test [4] was 1.12 relative to Chimera; in test [5] it was 1.37 relative to Chimera; in test [6], 0.85 relative to Chimera.

B2: VH2/VK1 (antibody, human IgG4 S228P, kappa, V domains shown)
VH: B1 VH
VL: B1 VL with P84E
notes: humanized HJ8.5 variant, combination of VH2 and VK1
Take B2: the entries for the “IC50 (Relative to Chimera)” value in [4], in [5] and in [6] were 1.02 relative to Chimera, 1.43 relative to Chimera and 1.02 relative to Chimera, respectively.

B3: VH2/VK4 (antibody, human IgG4 S228P, kappa)
heavy chain: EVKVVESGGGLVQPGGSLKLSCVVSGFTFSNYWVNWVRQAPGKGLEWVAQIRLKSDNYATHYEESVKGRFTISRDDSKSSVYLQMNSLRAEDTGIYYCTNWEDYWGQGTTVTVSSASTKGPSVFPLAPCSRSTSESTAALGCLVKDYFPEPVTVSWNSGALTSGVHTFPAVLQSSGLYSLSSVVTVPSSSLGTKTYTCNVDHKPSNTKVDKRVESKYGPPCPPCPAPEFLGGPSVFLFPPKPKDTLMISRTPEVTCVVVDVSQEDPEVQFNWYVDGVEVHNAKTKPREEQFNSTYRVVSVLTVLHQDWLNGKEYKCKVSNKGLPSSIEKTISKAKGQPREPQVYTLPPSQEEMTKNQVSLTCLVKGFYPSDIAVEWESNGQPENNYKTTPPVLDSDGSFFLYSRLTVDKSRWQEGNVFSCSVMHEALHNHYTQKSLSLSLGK
light chain: DIVMTQSPDSLAVSLGERATISCRASQSVSTSRYSYIHWYQQKPGQPPKLLIKYASNLESGVPSRFSGSGSGTDFTLTISSLQPEDFATYYCHHSWEIPLTFGQGTKLEIKRTVAAPSVFIFPPSDEQLKSGTASVVCLLNNFYPREAKVQWKVDNALQSGNSQESVTEQDSKDSTYSLSSTLTLSKADYEKHKVYACEVTHQGLSSPVTKSFNRGEC
notes: humanized HJ8.5 variant, combination of VH2 and VK4
As for B3, the entries for the “IC50 (Relative to Chimera)” value in test [4], in [5] and in test [6] were 1.37 relative to Chimera, 1.36 relative to Chimera and 1.03 relative to Chimera, respectively.

B4: VH1/VK1 (antibody, human IgG4 S228P, kappa, V domains shown)
VH: B1 VH with L18M, S87N, T93S
VL: B1 VL with P84E
notes: humanized HJ8.5 variant, combination of VH1 and VK1
As to B4, the “IC50 (Relative to Chimera)” value was 0.84 relative to Chimera in test [4], 1.49 relative to Chimera in test [5] and 1.11 relative to Chimera in test [6].

B5: VH1/VK4 (antibody, human IgG4 S228P, kappa)
heavy chain: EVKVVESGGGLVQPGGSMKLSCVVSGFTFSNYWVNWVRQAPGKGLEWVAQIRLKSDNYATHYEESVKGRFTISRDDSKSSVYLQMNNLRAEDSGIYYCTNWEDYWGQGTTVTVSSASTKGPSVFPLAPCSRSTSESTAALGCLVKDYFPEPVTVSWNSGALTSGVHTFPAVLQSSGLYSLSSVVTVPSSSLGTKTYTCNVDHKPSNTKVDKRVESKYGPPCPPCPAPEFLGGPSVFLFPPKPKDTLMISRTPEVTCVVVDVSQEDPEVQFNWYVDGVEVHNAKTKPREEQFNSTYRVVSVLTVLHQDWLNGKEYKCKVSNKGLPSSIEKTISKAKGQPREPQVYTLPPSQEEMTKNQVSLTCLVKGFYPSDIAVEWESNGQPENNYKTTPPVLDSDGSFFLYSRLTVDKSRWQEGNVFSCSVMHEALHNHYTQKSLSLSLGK
light chain: B3 light chain
notes: humanized HJ8.5 variant, combination of VH1 and VK4
As to B5, the “IC50 (Relative to Chimera)” value is 1.41 relative to Chimera in [4], 2.05 relative to Chimera in [5] and 1.02 relative to Chimera in test [6].

B6: VH3/VK2 humanized anti-tau antibody (antibody, human IgG4 S228P, kappa, V domains shown)
VH: B1 VH with K3Q, S79N, G94A
VL: B1 VL
notes: Humanized variant of HJ8.5
B6: the equilibrium dissociation constant (Kd) was determined as 1.88 nM in [7], 2.08 nM in test [2] and 1.67 nM in test [3]. Further, the off-rate constant (koff) in test [7] is 0.000515 s⁻¹; in [2] it was 0.000546 s⁻¹; in test [3], 0.000485 s⁻¹. Further, the kon in test [7] was determined as 276000 M⁻¹ s⁻¹; in [2] it was 262000 M⁻¹ s⁻¹; in [3], 290000 M⁻¹ s⁻¹. Also, the “IC50 (Relative to Chimera)” value in test [4] was 0.94 relative to Chimera; in [5] it was 0.81 relative to Chimera; in test [6] it was 1.28 relative to Chimera.

B7: VH2/VK3 humanized anti-tau antibody (antibody, human IgG4 S228P, kappa)
heavy: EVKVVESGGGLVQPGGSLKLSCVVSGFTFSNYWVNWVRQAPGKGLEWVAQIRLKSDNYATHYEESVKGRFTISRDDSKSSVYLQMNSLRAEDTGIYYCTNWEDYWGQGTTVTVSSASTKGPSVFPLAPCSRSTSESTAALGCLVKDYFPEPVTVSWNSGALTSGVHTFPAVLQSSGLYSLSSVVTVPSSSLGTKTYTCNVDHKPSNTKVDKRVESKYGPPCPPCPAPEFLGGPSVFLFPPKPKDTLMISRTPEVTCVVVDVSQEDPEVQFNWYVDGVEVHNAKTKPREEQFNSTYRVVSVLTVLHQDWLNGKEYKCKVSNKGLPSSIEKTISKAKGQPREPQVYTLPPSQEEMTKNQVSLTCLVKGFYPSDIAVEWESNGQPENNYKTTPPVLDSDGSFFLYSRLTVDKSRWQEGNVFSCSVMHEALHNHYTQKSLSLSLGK
light: B3 light chain with M4L
notes: Humanized variant of HJ8.5
On to B7, for which the dissociation constant (Kd) in [8] came to 2.13 nM; in test [2], 2.44 nM; in [3], 1.83 nM. Moreover, the dissociation rate constant (koff) in [8] was determined as 0.000593 s⁻¹; in test [2], 0.000653 s⁻¹; in test [3], 0.000533 s⁻¹. The kon is 280000 M⁻¹ s⁻¹ in test [8], 268000 M⁻¹ s⁻¹ in test [2] and 292000 M⁻¹ s⁻¹ in test [3]. For the same molecule, the “IC50 (Relative to Chimera)” value in test [4] was 0.94 relative to Chimera; in test [5], 1.17 relative to Chimera; in [6], 0.97 relative to Chimera.

B8: VH3/VK1 (antibody, human IgG4 S228P, kappa, V domains shown)
VH: B1 VH with K3Q, S79N, G94A
VL: B1 VL with P84E
notes: humanized HJ8.5 variant, combination of VH3 and VK1
With B8, the results for the “IC50 (Relative to Chimera)” value in test [4], in test [5] and in test [6] were 1.04 relative to Chimera, 1.16 relative to Chimera and 1.42 relative to Chimera, respectively.

B9: VH1/VK3 humanized anti-tau antibody (antibody, human IgG4 S228P, kappa)
heavy: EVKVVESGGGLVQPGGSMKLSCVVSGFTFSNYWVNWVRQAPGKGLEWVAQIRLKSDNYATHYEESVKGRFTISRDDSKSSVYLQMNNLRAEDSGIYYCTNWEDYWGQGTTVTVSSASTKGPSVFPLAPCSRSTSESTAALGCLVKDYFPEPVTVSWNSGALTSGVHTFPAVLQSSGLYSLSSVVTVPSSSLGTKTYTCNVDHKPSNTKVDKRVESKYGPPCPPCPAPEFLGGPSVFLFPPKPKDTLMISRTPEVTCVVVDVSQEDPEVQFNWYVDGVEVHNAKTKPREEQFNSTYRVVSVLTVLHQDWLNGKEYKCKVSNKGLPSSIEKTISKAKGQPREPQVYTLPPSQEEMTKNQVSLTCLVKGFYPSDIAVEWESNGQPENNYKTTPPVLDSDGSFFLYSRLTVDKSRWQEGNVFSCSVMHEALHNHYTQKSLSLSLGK
light: B3 light chain with M4L
notes: Humanized variant of HJ8.5
On to B9, for which, in test [9], the dissociation constant (Kd) was determined as 2.09 nM, the dissociation rate constant (koff) was 0.000599 s⁻¹ and the on-rate constant (kon) stood at 287000 M⁻¹ s⁻¹. In test [2], the Kd is 2.24 nM, the koff is 0.000626 s⁻¹ and the association rate constant (kon) was 280000 M⁻¹ s⁻¹. In test [3], the Kd is 1.94 nM, the koff came out at 0.000572 s⁻¹ and the on-rate constant (kon) was 295000 M⁻¹ s⁻¹.

B10: VH4/VK3 (antibody, human IgG4 S228P, kappa, V domains shown)
VH: B1 VH with K3Q, V4L, S79N, V81L, G94A
VL: B1 VL with N78T, H80S, P81S, E83Q
notes: humanized HJ8.5 variant, combination of VH4 and VK3
Turning to B10, the figures for the “IC50 (Relative to Chimera)” value in [4], in [5] and in test [6] were 1.31 relative to Chimera, 1.79 relative to Chimera and 1.9 relative to Chimera, respectively.

B11: VH3/VK4 (antibody, human IgG4 S228P, kappa)
heavy chain: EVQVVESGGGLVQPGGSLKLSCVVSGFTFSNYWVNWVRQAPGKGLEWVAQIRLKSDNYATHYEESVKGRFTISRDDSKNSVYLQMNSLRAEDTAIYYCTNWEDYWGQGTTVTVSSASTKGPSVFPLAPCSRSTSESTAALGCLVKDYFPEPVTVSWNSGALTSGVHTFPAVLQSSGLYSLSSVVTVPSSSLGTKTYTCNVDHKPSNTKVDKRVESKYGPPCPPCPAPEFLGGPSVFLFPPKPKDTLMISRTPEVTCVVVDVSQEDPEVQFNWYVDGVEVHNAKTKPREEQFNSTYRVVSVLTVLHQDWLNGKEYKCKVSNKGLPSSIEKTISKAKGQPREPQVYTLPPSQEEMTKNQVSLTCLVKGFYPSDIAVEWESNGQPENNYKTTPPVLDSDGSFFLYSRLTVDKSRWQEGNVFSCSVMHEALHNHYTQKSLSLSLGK
light chain: B3 light chain
notes: humanized HJ8.5 variant, combination of VH3 and VK4
In the case of B11, the “IC50 (Relative to Chimera)” value in [4] is 1.51 relative to Chimera; in [5], 0.89 relative to Chimera; in [6], 1.22 relative to Chimera.
